Among the data in US20240092898A1 are FACS binding, FACS fold reduction compared to PP WT and Kd values, retold here.

Experiment [1] addresses CD7 on cells (human) (UniProt P09564). In words: flow cytometry on cells; cell line and unit not stated.
The target is the same in experiment [2]. Briefly: flow cytometry on cells; ratio to 7-PP-1 WT. Background: Flow cytometry measures light scatter and fluorescence of single cells or particles in a stream.
The next experiment deals with CD33 (human) (UniProt P20138). Briefly: SPR. Background: In SPR one partner is held on a chip, and binding of the other changes the refractive index at the surface.
Sequence of CD33 (human) (P20138 18-259 limits assumed): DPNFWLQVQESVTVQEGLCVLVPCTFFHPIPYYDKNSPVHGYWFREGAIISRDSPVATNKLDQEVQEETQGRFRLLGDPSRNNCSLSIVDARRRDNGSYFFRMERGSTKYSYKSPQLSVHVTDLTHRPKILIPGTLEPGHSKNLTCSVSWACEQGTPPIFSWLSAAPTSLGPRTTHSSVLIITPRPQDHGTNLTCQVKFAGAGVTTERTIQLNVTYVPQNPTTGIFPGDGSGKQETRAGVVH

Sequence of CD7 on cells (human) (P09564 26-240): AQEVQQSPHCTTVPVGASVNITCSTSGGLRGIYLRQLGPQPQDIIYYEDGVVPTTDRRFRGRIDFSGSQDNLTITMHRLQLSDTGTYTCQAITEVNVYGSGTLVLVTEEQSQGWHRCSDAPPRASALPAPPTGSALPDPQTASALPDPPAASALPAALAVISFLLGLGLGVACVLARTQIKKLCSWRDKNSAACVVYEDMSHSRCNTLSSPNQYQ

B1: CD7-PP-7 (Fab, V domains shown)
VH: QVQLQESGAELVKPGASVKLSCKASGYTFTSYWMHWVKQRPGQGLEWIGKINPSNGGTNYNEKFKSKATLTVDKSSSTAYMQLSSLTSEDSAVYYCARGGVYYDLYYAALDYWGQGTTVTVSS
VL: DIELTQSPATLSVTPGDSVSLSCRASQSISNNLHWYQQKSHESPRLLIKSASQSISGIPSRFSGSGSGTDFTLSINSVETEDFGMYFCQQSNSWPYTFGGGTKLEIKR
For the molecule B1, in the experiment with CD7 on cells (human) [1], the FACS binding was determined as 267. The FACS fold reduction compared to PP WT with CD7 on cells (human) [2] amounted to 502 fold.

B2: CD33-PP-1-WT (Fab, from another filing, V domains shown)
VH: EVQLVQSGAEVKKPGSSVKVSCKASGYTITDSNIHWVRQAPGQSLEWIGYIYPYNGGTDYNQKFKNRATLTVDNPTNTAYMELSSLRSEDTAFYYCVNGNPWLAYWGQGTLVTVSS
VL: DIQLTQSPSTLSASVGDRVTIICRASESLDNYGIRFLTWFQQKPGKAPKLLMYAASNQGSGVPSRFSGSGSGTEFTLTISSLQPDDFATYYCQQTKEVPWSFGQGTKLEIK
One may read the Kd as the equilibrium constant for the complex coming apart. In the experiment with CD33 (human), B2 returned a dissociation constant (Kd) of 1.36 nM.
